The values that follow come from patent publication US20260183429A1 (TRUSTEES OF COLUMBIA UNIVERSITY IN THE CITY OF NEW YORK, published 2026).

The experiment has as its target T1, endogenous MFN2 in WT mouse embryonic fibroblasts (MEFs) (mouse, UniProt Q80U63 1-757).
T1 construct: Detected in situ by proximity ligation assay; also called mitofusin-2
T1 sequence (looked up): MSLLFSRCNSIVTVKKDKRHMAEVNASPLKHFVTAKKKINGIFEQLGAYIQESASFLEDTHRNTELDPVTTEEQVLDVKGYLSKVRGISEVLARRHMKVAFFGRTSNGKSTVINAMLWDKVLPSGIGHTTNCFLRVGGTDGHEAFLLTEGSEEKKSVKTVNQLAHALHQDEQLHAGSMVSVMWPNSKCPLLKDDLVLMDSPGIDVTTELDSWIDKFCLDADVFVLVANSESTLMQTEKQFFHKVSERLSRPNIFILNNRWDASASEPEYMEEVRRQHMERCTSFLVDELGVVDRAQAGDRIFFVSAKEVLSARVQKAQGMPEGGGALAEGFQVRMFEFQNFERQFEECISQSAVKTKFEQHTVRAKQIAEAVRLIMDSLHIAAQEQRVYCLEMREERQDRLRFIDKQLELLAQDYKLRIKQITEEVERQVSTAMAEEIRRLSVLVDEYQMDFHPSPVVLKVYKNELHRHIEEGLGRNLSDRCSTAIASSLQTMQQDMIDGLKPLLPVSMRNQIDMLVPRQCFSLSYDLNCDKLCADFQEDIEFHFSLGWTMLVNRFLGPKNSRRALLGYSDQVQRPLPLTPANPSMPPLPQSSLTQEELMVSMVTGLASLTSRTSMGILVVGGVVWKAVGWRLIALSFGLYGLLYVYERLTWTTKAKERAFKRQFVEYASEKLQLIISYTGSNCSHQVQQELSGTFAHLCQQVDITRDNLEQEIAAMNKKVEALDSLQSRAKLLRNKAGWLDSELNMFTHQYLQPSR
As to the kind of experiment: proximity ligation assay of MFN2 and ATAT1 in WT MEFs.

B1: endogenous ATAT1 in WT mouse embryonic fibroblasts (MEFs) (enzyme, UniProt Q8K341 1-421, looked up)
chain: MEFPFDVDALFPERITVLDQHLRPPARRPGTTTPARVDLQQQIMTIVDELGKASAKAQHLPAPITSALRMQSNRHVIYILKDTSARPAGKGAIIGFLKVGYKKLFVLDDREAHNEVEPLCILDFYIHESVQRHGHGRELFQHMLQKERVEPHQLAIDRPSPKLLKFLNKHYNLETTVPQVNNFVIFEGFFAHQHRPPTSSLRATRHSRAAVADPIPAAPARKLPPKRAEGDIKPYSSSDREFLKVAVEPPWPLNRAPRRATPPAHPPPRSSSLGNSPDRGPLRPFVPEQELLRSLRLCPPHPTARLLLATDPGGSPAQRRRTRGTPWGLVAQSCHYSRHGGFNTSFLGTGNQERKQGEQEAEDRSASEDRVLLLDGSGEEPTQTGAPRAQAPPPQSWTVGGDIMNARVIRNLQERRSTRPW
notes: Detected in situ by proximity ligation assay
With B1, the binding result was “binds”.
